According to US6132731, “Murine leukemia virus vectors” (Oxford Biomedica (UK) Limited, dated 2000):

Experiments:
VLA4 receptor (human) = VLA4 receptor (human) (UniProt P13612)
VLA4 receptor = VLA4 receptor (human, UniProt P13612); experiment: cell-based or functional assay
VLA3 receptor = VLA3 receptor (human, UniProt P26006); experiment: cell-based or functional assay
VLA5 receptor = VLA5 receptor (human, UniProt P08648); experiment: cell-based or functional assay

## amphotropic MLV envelope (isolate 4070a) (plasmid pHIT456)
VLA4 receptor (human)
  viral titer of pHIT456 (amphotropic) virus on U937 cells in the presence of anti-VLA4 antibody: 40000 viral titer

B1: hybrid ecotropic MLV envelope with the VCAM-1 sequence at site II (plasmid pHIT510) (other)
chain: ASPGSSPHQVYNITWEVTNGDRETVWATSGNHPLWTWWPDLTPDLCMLAHHGPSYWGLEYQSPFSSPPGPPCCSGGSSPGCSRDCEEPLTSLTPRCNTAWNRLKLDQTTHKSNEGFYVCTIDSPLNCGGPDSFYCAYWGCETTGRAYWKPSSSWDFITVNNNLTSDQAVQVCKDNKWCNPLVIRFTDAGRRVTSWTTGHYWGLRLYVSGQDPGLTFGIRLRYQNLGPRVPIGPNPVLADQQPLSKPKPVKSPSVTKPPSGTPLSPTQLPPAGTENRLLNLVDGAYQALNLTSPDKTQECWLCLVAGPPYYEGVAVLGTYSNHTSAPANCSVASQHKLTLSEVTGQGLCIGAVPKTHQALCNTTQTSSRGSYYLVAPTGTMWACSTGLTPCISTTILNLTTDYCVLVELWPRVTYHSPSYVYGLFERSNRHKREPVSLTLALLLGGLTMGGIAAGIGTGTTALMATQQFQQLQAAVQDDLREVEKSISNLEKSLTSLSEVVLQNRRGLDLLFLKEGGLCAALKEECCFYADHTGLVRDSMAKLRERLNQRQKLFESTQGWFEGLFNRSPWFTTLISTIMGPLIVLLMILLFGPCILNRLVQFVKDRISVVQALVLTQQYHQLKPIEYEP
VLA4 receptor
  viral titer on U937 cells (lacZ delivery, X-gal staining): 150 viral titer

B2: hybrid ecotropic MLV envelope with FLA16 at site II (plasmid pHIT508) (other)
chain: ASPGSSPHQVYNITWEVTNGDRETVWATSGNHPLWTWWPDLTPDLCMLAHHGPSYWGLEYQSPFSSPPGPPCCSGGSSPGCSRDCEEPLTSLTPRCNTAWNRLKLDQTTHKSNEGFYVCQGATFALRGDNPQGCGGPDSFYCAYWGCETTGRAYWKPSSSWDFITVNNNLTSDQAVQVCKDNKWCNPLVIRFTDAGRRVTSWTTGHYWGLRLYVSGQDPGLTFGIRLRYQNLGPRVPIGPNPVLADQQPLSKPKPVKSPSVTKPPSGTPLSPTQLPPAGTENRLLNLVDGAYQALNLTSPDKTQECWLCLVAGPPYYEGVAVLGTYSNHTSAPANCSVASQHKLTLSEVTGQGLCIGAVPKTHQALCNTTQTSSRGSYYLVAPTGTMWACSTGLTPCISTTILNLTTDYCVLVELWPRVTYHSPSYVYGLFERSNRHKREPVSLTLALLLGGLTMGGIAAGIGTGTTALMATQQFQQLQAAVQDDLREVEKSISNLEKSLTSLSEVVLQNRRGLDLLFLKEGGLCAALKEECCFYADHTGLVRDSMAKLRERLNQRQKLFESTQGWFEGLFNRSPWFTTLISTIMGPLIVLLMILLFGPCILNRLVQFVKDRISVVQALVLTQQYHQLKPIEYEP
VLA3 receptor
  viral titer on U937 cells (lacZ delivery, X-gal staining): 150 viral titer
VLA5 receptor
  viral titer on U937 cells (lacZ delivery, X-gal staining): 150 viral titer
